# T1: Purified oat phytochrome A, Pfr spectral form, autophosphorylated, P06593
# T1 chain: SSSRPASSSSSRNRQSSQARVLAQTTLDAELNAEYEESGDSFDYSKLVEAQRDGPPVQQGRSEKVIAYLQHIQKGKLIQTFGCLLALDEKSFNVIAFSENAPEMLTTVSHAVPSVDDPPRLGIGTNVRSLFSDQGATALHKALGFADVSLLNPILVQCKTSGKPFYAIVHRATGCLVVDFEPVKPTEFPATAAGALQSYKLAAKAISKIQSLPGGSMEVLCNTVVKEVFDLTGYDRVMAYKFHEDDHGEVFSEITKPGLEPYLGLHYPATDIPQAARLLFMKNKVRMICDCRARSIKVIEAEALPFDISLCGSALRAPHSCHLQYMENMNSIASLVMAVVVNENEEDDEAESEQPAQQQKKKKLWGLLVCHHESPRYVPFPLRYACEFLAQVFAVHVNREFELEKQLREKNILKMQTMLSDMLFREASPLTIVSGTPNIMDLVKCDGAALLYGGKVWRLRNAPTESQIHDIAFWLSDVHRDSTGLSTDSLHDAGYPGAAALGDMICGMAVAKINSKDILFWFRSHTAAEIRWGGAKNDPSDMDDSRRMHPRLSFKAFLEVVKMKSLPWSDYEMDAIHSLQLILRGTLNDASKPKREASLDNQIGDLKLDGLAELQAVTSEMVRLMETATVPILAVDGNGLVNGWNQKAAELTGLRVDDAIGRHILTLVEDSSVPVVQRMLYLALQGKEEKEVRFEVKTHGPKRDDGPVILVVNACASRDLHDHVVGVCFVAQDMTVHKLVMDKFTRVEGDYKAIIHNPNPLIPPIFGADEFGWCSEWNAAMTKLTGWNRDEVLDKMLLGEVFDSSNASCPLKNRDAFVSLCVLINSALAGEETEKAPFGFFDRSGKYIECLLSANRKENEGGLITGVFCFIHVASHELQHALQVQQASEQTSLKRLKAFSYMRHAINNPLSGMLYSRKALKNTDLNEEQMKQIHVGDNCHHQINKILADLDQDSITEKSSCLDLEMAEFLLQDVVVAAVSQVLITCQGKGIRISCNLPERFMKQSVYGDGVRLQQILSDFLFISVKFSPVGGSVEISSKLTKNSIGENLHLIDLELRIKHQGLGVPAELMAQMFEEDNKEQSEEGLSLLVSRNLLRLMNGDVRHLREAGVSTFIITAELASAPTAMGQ
# T2: Purified oat phytochrome A, Pr spectral form, autophosphorylated, P06593
# T2 chain: T1 chain
# T3: Purified oat phytochrome A, autophosphorylated in the presence of gamma-[32P]ATP, P06593
# T3 chain: T1 chain
# B1: Recombinant PP2AC-JD protein expressed in E. coli BL21 from pGEX-4T-1 as a GST fusion, GST tag removed by thrombin (protein)
# chain: DLDQWISKVKDGQHLLEDELQLLCEYVKEILIEESNVQPVNSPVTVCGDIHGQFHDLMKLFQTGGHVPETNYIFMGDFVDRGYNSLDVFTILLLLKARYPANITLLRGNHESRQLTQVYGFYDECQRKYGNANATRYCTDVFDYLTLSAIIDGTVLCVHGGLSPDIRTIDQIRVIERNCEIPHEGPFCDLMWSDPEDIETWAVSPRGAGWLFGSRVTSEFNHINNLDLVCRAHQLVQEGLKYMFQDKGLVTVWSAPNYCYRCGNVASILSFNENMEREVKFFTETEENNQMRGPRTGVPYFL
# How the values were obtained:
# [1] = molecular target: T1, Purified oat phytochrome A, Pfr …
# [2] = molecular target: T2, Purified oat phytochrome A, Pr spectral …
# [3] = molecular target: T3, Purified oat phytochrome A, …
protein,measurement,setting,value
B1,"dephosphorylation of 32P-autophosphorylated phytochrome A (SDS-PAGE, autoradiography)",[1],more efficiently dephosphorylated by the PP2AC-JD than the Pr spectral form
same,"dephosphorylation of 32P-autophosphorylated phytochrome A (SDS-PAGE, autoradiography)",[2],The Pfr phytochrome A was more efficiently dephosphorylated by the PP2AC-JD than the Pr spectral form
same,"dephosphorylation of 32P-autophosphorylated phytochrome A (SDS-PAGE, autoradiography)",[3],efficiently dephosphorylated by the PP2AC-JD only in the presence of Fe^2+ or Zn^2+

# — patent publication US20030028924
